Data from article PMC10786891, “Massively parallel profiling of RNA-targeting CRISPR-Cas13d”.
Residue numbers refer to the chain shown, from its start. Numbers in names are those of the source.

Molecular target: T1, EsCas13d, nuclease-dead (Eubacterium siraeum, UniProt B0MS50, R295A;H300A;R849A;H854A)
T1 sequence: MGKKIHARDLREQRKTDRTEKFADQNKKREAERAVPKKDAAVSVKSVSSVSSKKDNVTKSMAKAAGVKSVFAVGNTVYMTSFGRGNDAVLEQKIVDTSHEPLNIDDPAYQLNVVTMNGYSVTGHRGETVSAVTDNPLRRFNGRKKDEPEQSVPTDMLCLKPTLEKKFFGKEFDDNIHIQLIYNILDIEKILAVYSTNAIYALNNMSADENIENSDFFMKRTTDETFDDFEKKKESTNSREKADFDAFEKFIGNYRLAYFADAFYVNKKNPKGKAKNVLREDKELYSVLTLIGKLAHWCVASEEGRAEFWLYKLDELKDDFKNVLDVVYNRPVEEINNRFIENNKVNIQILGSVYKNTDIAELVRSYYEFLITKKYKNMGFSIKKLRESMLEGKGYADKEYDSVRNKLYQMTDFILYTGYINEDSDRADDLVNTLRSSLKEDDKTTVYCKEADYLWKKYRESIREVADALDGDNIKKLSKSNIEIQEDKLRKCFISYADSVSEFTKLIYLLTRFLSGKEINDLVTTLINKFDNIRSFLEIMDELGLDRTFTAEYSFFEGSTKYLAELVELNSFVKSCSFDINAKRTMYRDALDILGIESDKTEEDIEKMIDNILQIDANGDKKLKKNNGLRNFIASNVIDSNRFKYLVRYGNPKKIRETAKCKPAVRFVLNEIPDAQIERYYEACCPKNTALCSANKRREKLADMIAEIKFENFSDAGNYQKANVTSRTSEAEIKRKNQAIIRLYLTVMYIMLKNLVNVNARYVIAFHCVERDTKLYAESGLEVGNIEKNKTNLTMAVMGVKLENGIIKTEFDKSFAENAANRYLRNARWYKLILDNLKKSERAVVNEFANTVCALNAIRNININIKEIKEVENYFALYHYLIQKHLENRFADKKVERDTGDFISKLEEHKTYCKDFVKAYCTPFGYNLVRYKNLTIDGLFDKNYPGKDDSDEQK
Test: crRNA (strand 1, pre-loaded); Mg2+; 40 mM Tris-HCl pH 7.5, 150 mM NaCl, 6 mM MgCl2, 1 mM DTT, 0.1% Tween-20, 0.2 mg/ml BSA; 25 C; 10 min per concentration, then washed
Details: tags: His6-TwinStrep-SUMO cleaved; N-terminal SNAP kept (SNAP-Surface 488); label: 3' end held by stalled T7 RNA polymerase

B1: target 1 MT 5'PFS AAC 3'PFS AUA (mixed)
RNA 1: CACCCGUGCAAAAAUGCAGGGGUCUAAAACUGAGCGGAUAACCUCUCUAUGG
RNA 2: GGGAAUGGAUCCACAUCUACGAAUUCAACCCAUAGAGAGGUUAUCCGCUCAAUAAGAUCGGAAGAGCACACGU
Kd: 22 ± 8.5 nM

B2: target 1 MT 5'PFS UUU 3'PFS ACU (mixed)
RNA 1: B1 RNA 1
RNA 2: B1 RNA 2 with A27U, A28U, C29U, U53C, A54U
Kd: 21.2 ± 4.1 nM

B3: target 1 MT 5'PFS UUU 3'PFS ACC (mixed)
RNA 1: B1 RNA 1
RNA 2: B1 RNA 2 with A27U, A28U, C29U, U53C, A54C
Kd: ~46.5 nM

B4: target 1 MT 5'PFS GUG 3'PFS CAA (mixed)
RNA 1: B1 RNA 1
RNA 2: B1 RNA 2 with A27G, A28U, C29G, A52C, U53A
Kd: 31 ± 4.5 nM

B5: target 1 MT 5'PFS GGA 3'PFS UAG (mixed)
RNA 1: B1 RNA 1
RNA 2: B1 RNA 2 with A27G, A28G, C29A, A52U, U53A, A54G
Kd: 17.6 ± 4.05 nM

B6: target 1 MT 5'PFS GGA 3'PFS UAA (mixed)
RNA 1: B1 RNA 1
RNA 2: B1 RNA 2 with A27G, A28G, C29A, A52U, U53A
Kd: 21.9 ± 4.9 nM

B7: target 1 MT 5'PFS GUG 3'PFS CAU (mixed)
RNA 1: B1 RNA 1
RNA 2: B1 RNA 2 with A27G, A28U, C29G, A52C, U53A, A54U
Kd: 18.4 ± 2 nM

B8: target 1 MT 5'PFS UCC 3'PFS UCU (mixed)
RNA 1: B1 RNA 1
RNA 2: B1 RNA 2 with A27U, A28C, A52U, U53C, A54U
Kd: 23 ± 8 nM

B9: target 1 MT 5'PFS CCA 3'PFS AUG (mixed)
RNA 1: B1 RNA 1
RNA 2: B1 RNA 2 with A27C, A28C, C29A, A54G
Kd: ~8.15 nM

B10: target 1 MT 5'PFS CCA 3'PFS AUU (mixed)
RNA 1: B1 RNA 1
RNA 2: B1 RNA 2 with A27C, A28C, C29A, A54U
Kd: 2.62 ± 0.595 nM

B11: target 1 MT 5'PFS CCA 3'PFS AUA (mixed)
RNA 1: B1 RNA 1
RNA 2: B1 RNA 2 with A27C, A28C, C29A
Kd: 6.1 ± 1.7 nM

B12: target 1 MT 5'PFS GUG 3'PFS GUA (mixed)
RNA 1: B1 RNA 1
RNA 2: B1 RNA 2 with A27G, A28U, C29G, A52G
Kd: 12.2 ± 1.6 nM

B13: target 1 MT 5'PFS GUG 3'PFS UUA (mixed)
RNA 1: B1 RNA 1
RNA 2: B1 RNA 2 with A27G, A28U, C29G, A52U
Kd: 10.6 ± 0.65 nM

B14: target 1 MT 5'PFS CUC 3'PFS CUA (mixed)
RNA 1: B1 RNA 1
RNA 2: B1 RNA 2 with A27C, A28U, A52C
Kd: ~39 nM

B15: target 1 MT 5'PFS GUG 3'PFS UUU (mixed)
RNA 1: B1 RNA 1
RNA 2: B1 RNA 2 with A27G, A28U, C29G, A52U, A54U
Kd: 9.05 ± 0.495 nM

B16: target 1 C2G,C6G (mixed)
RNA 1: B1 RNA 1
RNA 2: B1 RNA 2 with A27G, A28U, C29A, C46G, C50G, A52C, U53C, A54G
Kd: 4.46 ± 0.23 nM

B17: target 1 MT 5'PFS CCA 3'PFS UCC (mixed)
RNA 1: B1 RNA 1
RNA 2: B1 RNA 2 with A27C, A28C, C29A, A52U, U53C, A54C
Kd: ~4.5 nM

B18: target 1 MT 5'PFS GGA 3'PFS UAU (mixed)
RNA 1: B1 RNA 1
RNA 2: B1 RNA 2 with A27G, A28G, C29A, A52U, U53A, A54U
Kd: 11.7 ± 1.5 nM

B19: target 1 MT 5'PFS CAA 3'PFS AAU (mixed)
RNA 1: B1 RNA 1
RNA 2: B1 RNA 2 with A27C, C29A, U53A, A54U
Kd: ~25.5 nM

B20: target 1 MT 5'PFS GAG 3'PFS AAU (mixed)
RNA 1: B1 RNA 1
RNA 2: B1 RNA 2 with A27G, C29G, U53A, A54U
Kd: 39 ± 11.5 nM

B21: target 1 MT 5'PFS UCC 3'PFS UCG (mixed)
RNA 1: B1 RNA 1
RNA 2: B1 RNA 2 with A27U, A28C, A52U, U53C, A54G
Kd: 20.6 ± 7.75 nM

B22: target 1 MT 5'PFS GGA 3'PFS UAC (mixed)
RNA 1: B1 RNA 1
RNA 2: B1 RNA 2 with A27G, A28G, C29A, A52U, U53A, A54C
Kd: 14 ± 6 nM

B23: target 1 MT 5'PFS AAC 3'PFS AUG (mixed)
RNA 1: B1 RNA 1
RNA 2: B1 RNA 2 with A54G
Kd: ~60 nM

B24: target 1 MT 5'PFS CUC 3'PFS CUG (mixed)
RNA 1: B1 RNA 1
RNA 2: B1 RNA 2 with A27C, A28U, A52C, A54G
Kd: ~27 nM

B25: target 1 MT 5'PFS AAA 3'PFS AGA (mixed)
RNA 1: B1 RNA 1
RNA 2: B1 RNA 2 with C29A, U53G
Kd: 33 ± 12.5 nM

B26: target 1 MT 5'PFS CCA 3'PFS UCU (mixed)
RNA 1: B1 RNA 1
RNA 2: B1 RNA 2 with A27C, A28C, C29A, A52U, U53C, A54U
Kd: 4.9 ± 2.45 nM

B27: target 1 MT 5'PFS GUG 3'PFS CAC (mixed)
RNA 1: B1 RNA 1
RNA 2: B1 RNA 2 with A27G, A28U, C29G, A52C, U53A, A54C
Kd: 26.6 ± 2.8 nM

B28: target 1 MT 5'PFS CAG 3'PFS AGC (mixed)
RNA 1: B1 RNA 1
RNA 2: B1 RNA 2 with A27C, C29G, U53G, A54C
Kd: 20.5 ± 9 nM

B29: target 1 MT 5'PFS CCA 3'PFS UCA (mixed)
RNA 1: B1 RNA 1
RNA 2: B1 RNA 2 with A27C, A28C, C29A, A52U, U53C
Kd: 6.55 ± 1.8 nM

B30: target 1 MT 5'PFS GUG 3'PFS GUU (mixed)
RNA 1: B1 RNA 1
RNA 2: B1 RNA 2 with A27G, A28U, C29G, A52G, A54U
Kd: 17.9 ± 2.75 nM

B31: target 1 C4U,C7U (mixed)
RNA 1: B1 RNA 1
RNA 2: B1 RNA 2 with A27G, A28U, C29A, C45U, C48U, A52C, U53C, A54G
Kd: 29 ± 5 nM

B32: target 1 MT 5'PFS UCC 3'PFS UCC (mixed)
RNA 1: B1 RNA 1
RNA 2: B1 RNA 2 with A27U, A28C, A52U, U53C, A54C
Kd: 12.1 ± 1.9 nM

B33: target 1 MT 5'PFS GUG 3'PFS UUG (mixed)
RNA 1: B1 RNA 1
RNA 2: B1 RNA 2 with A27G, A28U, C29G, A52U, A54G
Kd: 7.86 ± 0.47 nM

B34: target 1 MT 5'PFS GUG 3'PFS UUC (mixed)
RNA 1: B1 RNA 1
RNA 2: B1 RNA 2 with A27G, A28U, C29G, A52U, A54C
Kd: 11.6 ± 0.9 nM

B35: target 1 MT 5'PFS AAC 3'PFS AUC (mixed)
RNA 1: B1 RNA 1
RNA 2: B1 RNA 2 with A54C
Kd: ~25 nM

B36: target 1 MT 5'PFS GAG 3'PFS AAG (mixed)
RNA 1: B1 RNA 1
RNA 2: B1 RNA 2 with A27G, C29G, U53A, A54G
Kd: ~60 nM

B37: target 1 MT 5'PFS GUG 3'PFS CAG (mixed)
RNA 1: B1 RNA 1
RNA 2: B1 RNA 2 with A27G, A28U, C29G, A52C, U53A, A54G
Kd: 22.8 ± 2 nM

B38: target 1 MT 5'PFS UCC 3'PFS UCA (mixed)
RNA 1: B1 RNA 1
RNA 2: B1 RNA 2 with A27U, A28C, A52U, U53C
Kd: ~20 nM

B39: target 1 insG 3' of 9,insG 3' of 1 (mixed)
RNA 1: B1 RNA 1
RNA 2: GGGAAUGGAUCCACAUCUACGAAUUCGUACCAUAGAGAGGUUAGUCCGCUCAGCCGAGAUCGGAAGAGCACACGU
Kd: 19.2 ± 2.3 nM

B40: target 1 G15C,G17U (mixed)
RNA 1: B1 RNA 1
RNA 2: B1 RNA 2 with A27G, A28U, C29A, G35U, G37C, A52C, U53C, A54G
Kd: 90 ± 40 nM
